Values of other authors as cited in US20200069786A1, “COMPOSITION AND PROCESS FOR PREPARING VACCINE” (TREOS BIO ZRT., priority 2018, published 2020).
Where two headings read alike, the source gives them in different places.

System: TSA
[1] = TSA expression rate in BLADDER cancer
[2] = TSA expression rate in Cervical cancer
[3] = TSA expression rate in HEAD and NECK
[4] = TSA expression rate in MELANOMA

B1: PIWIL2 (protein, UniProt Q8TC59 1-973, looked up)
Piwi-like protein 2: MDPFRPSFRGQSPIHPSQCQAVRMPGCWPQASKPLDPALGRGAPAGRGHVFGKPEEPSTQRGPAQRESVGLVSMFRGLGIETVSKTPLKREMLPSGRGILGRGLSANLVRKDREELSPTFWDPKVLAAGDSKMAETSVGWSRTLGRGSSDASLLPLGRAAGGISREVDKPPCTFSTPSRGPPQLSSPPALPQSPLHSPDRPLVLTVEHKEKELIVKQGSKGTPQSLGLNLVKIQCHNEAVYQYHVTFSPNVECKSMRFGMLKDHQAVTGNVTAFDGSILYLPVKLQQVLELKSQRKTDSAEISIKIQMTKILEPCSDLCIPFYNVVFRRVMKLLDMKLVGRNFYDPTSAMVLQQHRLQIWPGYAASIRRTDGGLFLLADVSHKVIRNDCVLDVMHAIYQQNKEHFQDECTKLLVGNIVITRYNNRTYRIDDVDWNKTPKDSFTMSDGKEITFLEYYSKNYGITVKEEDQPLLIHRPSERQDNHGMLLKGEILLLPELSFMTGIPEKMKKDFRAMKDLAQQINLSPKQHHSALECLLQRIAKNEAATNELMRWGLRLQKDVHKIEGRVLPMERINLKNTSFITSQELNWVKEVTRDPSILTIPMHFWALFYPKRAMDQARELVNMLEKIAGPIGMRMSPPAWVELKDDRIETYVRTIQSTLGAEGKIQMVVCIIMGPRDDLYGAIKKLCCVQSPVPSQVVNVRTIGQPTRLRSVAQKILLQINCKLGGELWGVDIPLKQLMVIGMDVYHDPSRGMRSVVGFVASINLTLTKWYSRVVFQMPHQEIVDSLKLCLVGSLKKFYEVNHCLPEKIVVYRDGVSDGQLKTVANYEIPQLQKCFEAFENYQPKMVVFVVQKKISTNLYLAAPQNFVTPTPGTVVDHTITSCEWVDFYLLAHHVRQGCGIPTHYVCVLNTANLSPDHMQRLTFKLCHMYWNWPGTIRVPAPCKYAHKLAFLSGHILHHEPAIQLCENLFFL
BRAIN
  TSA Expression Rate (ER): 64%
BREAST
  TSA Expression Rate (ER): 94%
LUNG
  TSA Expression Rate (ER): 66%
OVARIAN
  TSA Expression Rate (ER): 61%
THYROID
  TSA Expression Rate (ER): 88%
[1]
  Expression Rate (ER) %: 82%
TSA expression rate in CRC
  Expression Rate (ER) %: 80%
[2]
  Expression Rate (ER) %: 100%
TSA expression rate in Kidney
  Expression Rate (ER) %: 49%
TSA expression rate in PROSTATE cancer
  Expression Rate (ER) %: 100%

B2: GAGE-1 (protein, UniProt P0DTW1 1-117, looked up)
G antigen 1: MSWRGRSTYYWPRPRRYVQPPEMIGPMRPEQFSDEVEPATPEEGEPATQRQDPAAAQEGEDEGASAGQGPKPEADSQEQGHPQTGCECEDGPDGQEMDPPNPEEVKTPEEGEGQSQC
BRAIN
  TSA Expression Rate (ER): 42%
[3]
  Expression Rate (ER) %: 39%

B3: SPAG9 (protein, UniProt O60271 1-1321, looked up)
C-Jun-amino-terminal …: MELEDGVVYQEEPGGSGAVMSERVSGLAGSIYREFERLIGRYDEEVVKELMPLVVAVLENLDSVFAQDQEHQVELELLRDDNEQLITQYEREKALRKHAEEKFIEFEDSQEQEKKDLQTRVESLESQTRQLELKAKNYADQISRLEEREAELKKEYNALHQRHTEMIHNYMEHLERTKLHQLSGSDQLESTAHSRIRKERPISLGIFPLPAGDGLLTPDAQKGGETPGSEQWKFQELSQPRSHTSLKVSNSPEPQKAVEQEDELSDVSQGGSKATTPASTANSDVATIPTDTPLKEENEGFVKVTDAPNKSEISKHIEVQVAQETRNVSTGSAENEEKSEVQAIIESTPELDMDKDLSGYKGSSTPTKGIENKAFDRNTESLFEELSSAGSGLIGDVDEGADLLGMGREVENLILENTQLLETKNALNIVKNDLIAKVDELTCEKDVLQGELEAVKQAKLKLEEKNRELEEELRKARAEAEDARQKAKDDDDSDIPTAQRKRFTRVEMARVLMERNQYKERLMELQEAVRWTEMIRASRENPAMQEKKRSSIWQFFSRLFSSSSNTTKKPEPPVNLKYNAPTSHVTPSVKKRSSTLSQLPGDKSKAFDFLSEETEASLASRREQKREQYRQVKAHVQKEDGRVQAFGWSLPQKYKQVTNGQGENKMKNLPVPVYLRPLDEKDTSMKLWCAVGVNLSGGKTRDGGSVVGASVFYKDVAGLDTEGSKQRSASQSSLDKLDQELKEQQKELKNQEELSSLVWICTSTHSATKVLIIDAVQPGNILDSFTVCNSHVLCIASVPGARETDYPAGEDLSESGQVDKASLCGSMTSNSSAETDSLLGGITVVGCSAEGVTGAATSPSTNGASPVMDKPPEMEAENSEVDENVPTAEEATEATEGNAGSAEDTVDISQTGVYTEHVFTDPLGVQIPEDLSPVYQSSNDSDAYKDQISVLPNEQDLVREEAQKMSSLLPTMWLGAQNGCLYVHSSVAQWRKCLHSIKLKDSILSIVHVKGIVLVALADGTLAIFHRGVDGQWDLSNYHLLDLGRPHHSIRCMTVVHDKVWCGYRNKIYVVQPKAMKIEKSFDAHPRKESQVRQLAWVGDGVWVSIRLDSTLRLYHAHTYQHLQDVDIEPYVSKMLGTGKLGFSFVRITALMVSCNRLWVGTGNGVIISIPLTETNKTSGVPGNRPGSVIRVYGDENSDKVTPGTFIPYCSMAHAQLCFHGHRDAVKFFVAVPGQVISPQSSSSGTDLTGDKAGPSAQEPGSQTPLKSMLVISGGEGYIDFRMGDEGGESELLGEDLPLEPSVTKAERSHLIVWQVMYGNE
BRAIN
  TSA Expression Rate (ER): 60%
BREAST
  TSA Expression Rate (ER): 88%
HCC
  TSA Expression Rate (ER): 52%
LUNG
  TSA Expression Rate (ER): 56%
OVARIAN
  TSA Expression Rate (ER): 90%
THYROID
  TSA Expression Rate (ER): 78%
[1]
  Expression Rate (ER) %: 81%
TSA expression rate in CRC
  Expression Rate (ER) %: 71%
[2]
  Expression Rate (ER) %: 82%
TSA expression rate in Kidney
  Expression Rate (ER) %: 88%
TSA expression rate in LEUKEMIAS
  Expression Rate (ER) %: 100%

B4: MAGE-A1l (protein, UniProt P43364 1-429, looked up)
Melanoma-associated antigen 11: METQFRRGGLGCSPASIKRKKKREDSGDFGLQVSTMFSEDDFQSTERAPYGPQLQWSQDLPRVQVFREQANLEDRSPRRTQRITGGEQVLWGPITQIFPTVRPADLTRVIMPLEQRSQHCKPEEGLQAQEEDLGLVGAQALQAEEQEAAFFSSTLNVGTLEELPAAESPSPPQSPQEESFSPTAMDAIFGSLSDEGSGSQEKEGPSTSPDLIDPESFSQDILHDKIIDLVHLLLRKYRVKGLITKAEMLGSVIKNYEDYFPEIFREASVCMQLLFGIDVKEVDPTSHSYVLVTSLNLSYDGIQCNEQSMPKSGLLIIVLGVIFMEGNCIPEEVMWEVLSIMGVYAGREHFLFGEPKRLLTQNWVQEKYLVYRQVPGTDPACYEFLWGPRAHAETSKMKVLEYIANANGRDPTSYPSLYEDALREEGEGV
BRAIN
  TSA Expression Rate (ER): 85%

B5: MAGE-A11 (protein, UniProt P43364 1-429, looked up)
Melanoma-associated antigen 11: METQFRRGGLGCSPASIKRKKKREDSGDFGLQVSTMFSEDDFQSTERAPYGPQLQWSQDLPRVQVFREQANLEDRSPRRTQRITGGEQVLWGPITQIFPTVRPADLTRVIMPLEQRSQHCKPEEGLQAQEEDLGLVGAQALQAEEQEAAFFSSTLNVGTLEELPAAESPSPPQSPQEESFSPTAMDAIFGSLSDEGSGSQEKEGPSTSPDLIDPESFSQDILHDKIIDLVHLLLRKYRVKGLITKAEMLGSVIKNYEDYFPEIFREASVCMQLLFGIDVKEVDPTSHSYVLVTSLNLSYDGIQCNEQSMPKSGLLIIVLGVIFMEGNCIPEEVMWEVLSIMGVYAGREHFLFGEPKRLLTQNWVQEKYLVYRQVPGTDPACYEFLWGPRAHAETSKMKVLEYIANANGRDPTSYPSLYEDALREEGEGV
BREAST
  TSA Expression Rate (ER): 59%
HCC
  TSA Expression Rate (ER): 36%
[3]
  Expression Rate (ER) %: 37%
[4]
  Expression Rate (ER) %: 54%

B6: ACTL8 (protein, UniProt Q9H568 1-366, looked up)
Actin-like protein 8: MAARTVIIDHGSGFLKAGTAGWNEPQMVFPNIVNYLPCKENPGPSYARRRVSLGIDICHPDTFSYPIERGRILNWEGVQYLWSFVLENHRREQEVPPVIITETPLREPADRKKMLEILFELLHVPSVLLADQLQMSLYASGLLTGVVVDSGYGLTRVQPFHQGRPLPASGKTLEFAGQDLSAYLLKSLFKEDCDRRCLFQLETVAVTQMNKCYVPQNLGEALDFRERQQSALDESNTYQLPDGSRVELTPMQRVAPEMFFSPQVFEQPGPSIPRAIVESVESCEISLRPLLVSHVMACGGNTLYPGFTKRLFRELMGDHVSSTKATVWEGSNRNFSVWLGASVVAHLSTYQSEWMSREEYGEHMRM
BRAIN
  TSA Expression Rate (ER): 54%

B7: PEPP2 (protein, UniProt Q9BQY4 1-288, looked up)
Rhox homeobox family member 2: MEPPDQCSQYMTSLLSPAVDDEKELQDMNAMVLSLTEEVKEEEEDAQPEPEQGTAAGEKLKSAGAQGGEEKDGGGEEKDGGGAGVPGHLWEGDLEGTSGSDGNVEDSDQSEKEPGQQYSRPQGAVGGLEPGNAQQPNVHAFTPLQLQELERIFQREQFPSEFLRRRLARSMNVTELAVQIWFENRRAKWRRHQRALMARNMLPFMAVGQPVMVTAAEAITAPLFISGMRDDYFWDHSHSSSLCFPMPPFPPPSLPLPLMLLPPMPPAGQAEFGPFPFVIVPSFTFPNV
BREAST
  TSA Expression Rate (ER): 60%

B8: XAGE-3 (protein, UniProt Q8WTP9 1-111, looked up)
X antigen family member 3: MIWRGRSTYRPRPRRSVPPPELIGPMLEPGDEEPQQEEPPTESRDPAPGQEREEDQGAAETQVPDLEADLQELSQSKTGGECGNGPDDQGKILPKSEQFKMPEGGDRQPQV
BRAIN
  TSA Expression Rate (ER): 60%
[3]
  Expression Rate (ER) %: 12%
[4]
  Expression Rate (ER) %: 0%

B9: gp100 (protein, UniProt P40967 25-661, looked up)
Melanocyte protein PMEL: KVPRNQDWLGVSRQLRTKAWNRQLYPEWTEAQRLDCWRGGQVSLKVSNDGPTLIGANASFSIALNFPGSQKVLPDGQVIWVNNTIINGSQVWGGQPVYPQETDDACIFPDGGPCPSGSWSQKRSFVYVWKTWGQYWQVLGGPVSGLSIGTGRAMLGTHTMEVTVYHRRGSRSYVPLAHSSSAFTITDQVPFSVSVSQLRALDGGNKHFLRNQPLTFALQLHDPSGYLAEADLSYTWDFGDSSGTLISRALVVTHTYLEPGPVTAQVVLQAAIPLTSCGSSPVPGTTDGHRPTAEAPNTTAGQVPTTEVVGTTPGQAPTAEPSGTTSVQVPTTEVISTAPVQMPTAESTGMTPEKVPVSEVMGTTLAEMSTPEATGMTPAEVSIVVLSGTTAAQVTTTEWVETTARELPIPEPEGPDASSIMSTESITGSLGPLLDGTATLRLVKRQVPLDCVLYRYGSFSVTLDIVQGIESAEILQAVPSGEGDAFELTVSCQGGLPKEACMEISSPGCQPPAQRLCQPVLPSPACQLVLHQILKGGSGTYCLNVSLADTNSLAVVSTQLIMPGQEAGLGQVPLIVGILLVLMAVVLASLIYRRRLMKQDFSVPQLPHSSSHWLRLPRIFCSCPIGENSPLLSGQQV
BRAIN
  TSA Expression Rate (ER): 85%
[4]
  Expression Rate (ER) %: 82%
